Assay: soluble on expression in E. coli; label from the status in PepcDB or PDB records

Row | Sequence | soluble on expression in E. coli
1 | MSGRRKGCSAATASSSSSSPPSRLPPLPGHARRPRRKRCLVPEVFCTRDLADLCVRRDYEGLRRYLRRFEGSCVSLGWPSQCIYVVGGEHSPHSLTEIDLEHCQNDFFGEFRALHLIGTVSHATCRYQVFVDAYGAVFAYDAQEDCLYELASDLAGFFAKGMIRCDPVHESICARLQPNVPLVHPDHRAELCRRSRASARGRYLRSLLAFRELLACEDTAARCAYVEAHREAQLTLIWPEKHSLVLRTARDLGLSASMLRRFQRSLYTREPVMPLGEIEGAEDKTFFHRVRILCGDTGTVYAALVGQDKLVRLARDLRGFVRVGLALLIDDFRYESIGPVDRSSLYEANPELRLPFKKRRLEHHHHHH | not soluble
2 | MGSDKIHHHHHHMRLHSPSMSELHAFVAAARLGSFTRAADTLCVTQGAISRAIARLEEHFGQPLIQRNAHRLTLTGAGQQLLDAVAGPLAAIEHASAALRAGDRSHHLTLSAVPTLASVWLVPRLPDFHRRHPDIRLDFVPYRRDEDFSGAAPDAALLAGEPGKWPGLQVDYVVGREMVPVCHPDRARQRHAAGRWREPAELMDEPLLYHTTAPANWANWLQAAGVPNAAPKLSSGFDQVSILVQAVRADMGIAVLQRCLLHDELAAGRVVAPFDLPIRLQRGYFLCSPRERRDHHALRCFREWLLETAAQDSGT | not soluble
3 | GPQDPYEINLMEELTLKGVTQYYAYVTERQKVHCLNTLFSRLQINQSIIFCNSSQRVELLAKKISQLGYSCFYIHAKMRQEHRNRVFHDFRNGLCRNLVCTDLFTRGIDIQAVNVVINFDFPKLAETYLHRIGRSGRFGHLGLAINLITYDDRFNLKSIEEQLGTEIKPIPSNIDKSLYVAEYHSEPVEDEKP | soluble
4 | MQCALYDAGRCRSCQWITQPIPEQLSAKTADLKNLLADFPVEEWCAPVSGPEQGFRNKAKMVVSGSVEKTLLGMLHRDGTPEDLCDCPLYPASFAPVFAALKPFIARAGLTPYNVARKRGELKYILLTESQSDGGMMLRFVLRSDTKLAQLRKALPWLHEQLPQLKVITVNIQPVHMAIMEGETEIYLTEQQALAERFNDVPLWIRPQSFFQTNPAVASQLYATARDWVRQLPVKHMWDLFCGVGGFGLHCATPDMQLTGIEIAPEAIACAKQSAAELGLTRLQFQALDSTQFATAQGEVPELVLVNPPRRGIGKPLCDYLSTMAPRFIIYSSCNAQTMAKDIRELPGYRIERVQLFDMFPHTAHYEVLTLLVKQ | not soluble
5 | SLKLLIEEFIPVEEISEEAKKEKLGNAKPPIFSLHYWWARKPLITARAAVLGALISKENLPMIVGNGDLKTNLLRILRIPKDINEGPRAHTQDPPAEYLKEAIIKTWGEIPTVLDPFAGGGSIPFEALRLGCNAVAVDYNPVAYLILKETLEYPKKYGMKLIL | soluble
6 | MLKFKNRIVEKRVKGAEKASFGGPVLLYRTLRKVTKLYKYITDKKSFPILVTSLFALFNPNSVLAADKYSNFEELKENESPLSYNILTTDVDRRVLILAPHGGGIEGGTSELARELSKSYSAYLFEGLRIPGASELHITSTNFDEPQALDLLSKHDLTISIHGYASSKKHTLVGGTDREKAAKITSLLTDAGFSAELLSEDSRLAGTNEQNIANKNSTGMSIQLEISTEQRREMFNTFTLAGRNGTQNQVFYDYIAVLTKFINENVYCMAGVAPLEHHHHHH | not soluble
7 | MKTVILIGALGKMGQAALTGLSKHKVITAGRSGNVDHLVDITNENSIRALYEKVGHFDAVVNTVGFCEYATFAEMTEAQWMTTVMSKMMGQINLVRIGQEYIADKGSFTLISGILNVKPIPCAIADATTSGAIDTFVKCVAYEMQRGTRINVVNPTVLTEAWDVYGDMMPGFEPVPSTLVGKAFERSVDGFINGEVLFVDALEHHHHHH | soluble
8 | LETSWIKPGQASWEWWNDAAPYGPDVNFVSGYNLETYKYYIDFASKYGIRYIIMDEGWAKSTRDPYTPNAKVDVHELIRYAEKKNVGIVLWLTWLTVENNMDLFKTFSEWGVKGVKIDFMDRSDQWMMNFYERVAAEAAKYKLFVDFHGSVSPKGLEYKYPNVLSYEGVRGMEQMGGATPDNSIFMPFMRNAVGAMD | not soluble
9 | MGHHHHHHSHMAASRNGFEAVEAEGSAGCRGSSGMEVVLPLDPAVPAPLCPHGPTLLFVKVTQGKEETRRFYACSACRDRKDCNFFQWEDEKLSGARLAAREAHNRRCQPPLSRTQCVERYLKFIELPLTQRKFCQTCQQLLLPDDWGQHSEHQVLGNVSITQLRRPSQLLYPLENKKTNAQYLFADRSCQFLVDLLSALGFRRVLCVGTPRLHELIKLTASGDKKSNIKSLLLDIDFRYSQFYMEDSFCHYNMFNHHFFDGKTALEVCRAFLQEDKGEGIIMVTDPPFGGLVEPLAITFKKLIAMWKEGQSQDDSHKELPIFWIFPYFFESRICQFFPSFQMLDYQVDYDNHALYKHGKTGRKQSPVRIFTNIPPNKIILPTEEGYRFCSPCQRYVSLENQHCELCNSCTSKDGRKWNHCFLCKKCVKPSWIHCSICNHCAVPDHSCEGPKHGCFICGELDHKRSTCP | soluble
10 | MERVTRKVQVTGGSTYIISLPPEWIKRNNIGKGSEVSVIDQGSDLVVTAPENSEPEITKKITLPGSYTGKPLQRLLTSTYISGFDTLVVVSKDKMTAEMRDDIKRFAKVVMGIEVIEETSRSIVLQNVLNASTFPLQKAIRRMSLNVSTMIEDTIKAIQDEDDDLVENIILRDDEVDRYQWYIYREVKIRCRDDRSNVYILVLSRILERIADHAVNICQAIKNRKGIKGKEKMVENLAYSKDVYNQAMETFYSKNFGEIDGIINRKSEITSRKYELLKILSYDSVLSSVAEEISRIGLYGTDIAELAMDLIMSDKDEFSV | not soluble
11 | MEVHDKIRTLREVNQWTQEEMAEKLEMSVNGYSKIERGKSGINLDKLRQIAQIFNIDVVELLAEQNRSFFFSIGDNTNNHHNIIGSDEMLVFENEKLRSLLDAKDELIRQKDSEIAVLKKLVILLEEKK | not soluble
12 | MSLGKTSMIHAIVDQYSHCEWVENSMSANENNLIWIDLEMTGLDPERDRIIEIATLVTDANLNILAEGPTIAVHQSDEQLALMDDWNVRTHTASGLVERVKASTMGDREAELATLEFLKQWVPAGKSPICGNSIGQDRRFLFKYMPELEAYFHYRYLDVSTLKELARRWKPEILDGFTKQGTHQAMDDIRESVAELAYYREHFIKLEGGSHHHHHH | soluble
13 | TQKSLSNFLLSMQEAFSLGEEDRLLAVTTVAFDISALELYLPLISGAQIVIAKKETIREPQALAQMIENFDINIMQATPTLWHALVTSEPEKLRGLRVLVGGEALPSGLLQELQDLHCSVTNLYGPTETTIWSAAAFLEEGLKGVPPIGKP | not soluble
14 | MEKRNEEHSRKKFIEEQLNALKHEERVLNETRTKLQQQKWHLLQENDKIKEKIRVRDAAAGAGTGTGAPPE | not soluble
15 | MKGRVRIRGIYATALTSIFSSLSYEIVQQSVEISERFMQEINNLSADITIKDFEDDRGKIIVMGNGIIEDDLRNVFKYSFHWRSPVKLYSVIEIDESCTYANFKVEPCLREGIVIKPPYDGKIILSETKAVSKYAIVWRGKGITTFSEHIVDEEEKMRLLTLSLPLNRKGYNVKWRSNAKYVALNELKEDLERLILRYENREFRDQGEDFYLITLSLPDKLYLDEVRKNVVDTVKYHHMLKLSYNREVDSLEKDKKGSLGKLLEGLISDFLKIEHIKADGKVIYLRGGKVIEKEVNDNGYRIVLRREFEGNGILDGIGKKIEEGDYDIVEYNSDKWYQIHKYYSGIDNSLKGVYINISTPPELLRGKIRYLDLEIDIAIRDSEIALLDEDELNKKSIYMPSSLVNKAKEVVNYLINRIQQNKLS | not soluble
16 | MGSDKIHHHHHHMKIGVFVPIGNNGWLISTHAPQYMPTFELNKAIVQKAEHYHFDFALSMIKLRGFGGKTEFWDHNLESFTLMAGLAAVTSKIQIYATAATLTLPPAIVARMASTIDSISGGRFGVNLVTGWQKPEYDQMGMWPGDDYFASRYDYLTEYVQVLRDLWGTGRSDFKGDYFTMNDCRVSPRPSQPMKVICAGQSDAGMAFSAQHADYNFCFGKGVNTPTAFAPTAARMMQAAEKTGRDVGSYVLFMVIADETDEAARAKWEHYKAGADEEALAWLTEQSQKDTRSGSDTNVRQMADPTSAVNINMGTLVGSYASVARMLDEVASVPGTDGVLLTFDDFLAGIDAFGERIQPLMRCRNHIASVTREVA | not soluble
17 | SVFKFIDLPQEEPRPSGGGKVTDLVLDNPHAQDCWPNQGHMDVQGLTVKYTEAGRSVLQNLSFTVEAGQSVGVLGRTGSGKSTLLSALLRLASTDGEISIDGVSWNSVTLQTWRKAFGVVPQKIFILTGTFRMNLDPHACHSDEELWRVAEEVGLKSVIEQFPDKLDFQLEDGGYVLSNGHKQLMCLARSILSKARILLLDEPSAYLDPITLQVLRKTLKQSFSNCTVILSEHRVEPLLECQSFLMIEGSSMKRYDSIQKLLNETSHLKQAISAAERLKLFPLHRLNSSKRPPQSQQPKITALQEEAEDEVQDTRL | not soluble
18 | MYDYSILPNRIILCVDLRSFYASVSCIKMGLDPMHTKLAVVGDVNRNGSIVLAATPPLKALGVKKMARLYEIPRRKDILVVNPIMSTYIKCSNYITKLALQYVPIEDFHQYSIDEFFMDITDSIHLFAQDPYEFAMKFKREIYDHTRIECTIGIAPNPLMSKVALDIEAKKNKDGIAFWQYEDIPTKLWSIRPLNKFWGISYKTEEKLNRKGIYSIGDLANYPLKYLKQSFGKIGEELHLHSHGIDFSRISEKYVPATTSIGKSQILMRDYTIEEFPIILLEHIEEVCYRLRRQTKLAQTIHFSVGYSKSYTGGIRKTHTLNRPTNLTMDIYHICTYFLHQQYTGEPIRSINISLTNLIQEGEEQISLFDNVTKREQEMKLTKVMDEIRTKFGKNSILRGISYTHSATARHRNTLIGLEHHHHHH | not soluble
19 | MSLKLITNYQFLTYDGNYFHAEVIQSVLAECERAGIEIDTVLLDRDHQNDMEKFWDQIRSGAAEGVILVGVDMPPMLEVVRALGVPVVMVNGNDPNCQFDSVMPAFRDGSRIATRYLIEQGHRDIVHVTHLYRPLIRRRLDGFREALEEAGLPFSFERNVIDISSGHFSAEQAASVVAERIANGTLNATALFCVSDYTAFGVVQGILRSGKTVPGDYSVASFDDLPLAQLCRPALTSVGVDRRALGRIAVERLLSRLESVEGPTLRIEVGARLTIRDSTRPEGHHHHHH | soluble
20 | MKEELIERFTRYVKIDTQSNEDSHTVPTTPGQIEFGKLLVEELKEVGLTEVTMDDNGYVMATLPANTDKDVPVIGFLAHLDTATDFTGKNVKPQIHENFDGNAITLNEELNIVLTPEQFPELPSYKGHTIITTDGTTLLGADDKAGLTEIMVAMNYLIHNPQIKHGKIRVAFTPDEEIGRGPAHFDVEAFGASFAYMMDGGPLGGLEYESFNAAGAKLTFNGTNTHPGTAKNKMRNATKLAMEFNGHLPVEEAPEYTEGYEGFYHLLSLNGDVEQSKAYYIIRDFDRKNFEARKNTIENIVKQMQEKYGQDAVVLEMNDQYYNMLEKIEPVREIVDIAYEAMKSLNIEPNIHPIRGGTDGSQLSYMGLPTPNIFTGGENYHGKFEYVSVDVMEKAVQVIIEIARRFEEQA | not soluble
21 | GPGSMRGVYPYLFAEDMRSRGAGEPAKKEVKKNKFVATINWELFTRVERMDVVFSPRPKGVTTGNEGDIADGCETGAPAVWSFVPVGVPHGENYRANAFLVPMHDKSESPRLLLYVSDISELEDRFFTDLARSKVLLGVDPAVPIEVLVLDMLSRRPYVAHLHVEASIAAAKRINAAKTYYVGMSHRINYDEMMQELQQLGLGATMEMGYDGCVVSVGDSGLQHLSGRL | not soluble

Source: the DeepSol protein solubility set
